# Measurements reported in PMC9482650, “Quantitative fragmentomics allow affinity mapping of interactomes” (Nature Communications, 2022).
# T1: DFNB31_2, Q9P202
# T1 sequence (Q9P202 274-371, limits assumed, looked up): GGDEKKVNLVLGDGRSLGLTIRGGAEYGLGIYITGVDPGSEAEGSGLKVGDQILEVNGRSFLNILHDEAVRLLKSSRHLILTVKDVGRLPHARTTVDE
# T2: DLG3_2, Q92796
# T2 sequence (Q92796 221-321, limits assumed, looked up): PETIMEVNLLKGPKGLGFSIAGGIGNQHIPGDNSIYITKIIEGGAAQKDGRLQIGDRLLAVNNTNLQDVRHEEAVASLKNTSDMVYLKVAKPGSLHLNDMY
# T3: DLG3_3, Q92796
# T3 sequence (Q92796 374-475, limits assumed, looked up): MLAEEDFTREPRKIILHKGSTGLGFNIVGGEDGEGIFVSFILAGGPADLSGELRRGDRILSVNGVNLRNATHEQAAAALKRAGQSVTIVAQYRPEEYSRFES
# T4: GRIP1_2, Q9Y3R0
# T4 sequence (Q9Y3R0 145-248, limits assumed, looked up): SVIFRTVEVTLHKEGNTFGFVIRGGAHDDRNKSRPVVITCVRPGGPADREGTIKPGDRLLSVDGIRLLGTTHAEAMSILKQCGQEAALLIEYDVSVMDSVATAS
# T5: GRIP1_4, Q9Y3R0
# T5 sequence (Q9Y3R0 467-571, limits assumed, looked up): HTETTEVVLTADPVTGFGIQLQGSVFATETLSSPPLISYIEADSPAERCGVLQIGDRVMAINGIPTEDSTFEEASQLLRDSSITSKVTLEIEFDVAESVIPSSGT
# T6: HTRA3, P83110
# T6 sequence (P83110 354-453, limits assumed, looked up): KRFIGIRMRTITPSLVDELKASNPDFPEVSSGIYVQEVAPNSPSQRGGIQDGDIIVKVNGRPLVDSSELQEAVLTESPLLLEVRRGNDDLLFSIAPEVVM
# T7: LIN7B, Q9HAP6
# T7 sequence (Q9HAP6 88-185, limits assumed, looked up): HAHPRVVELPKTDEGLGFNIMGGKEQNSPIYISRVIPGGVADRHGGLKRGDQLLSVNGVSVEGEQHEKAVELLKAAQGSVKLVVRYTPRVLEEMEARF
# T8: MPDZ_10, O75970
# T8 sequence (O75970 1624-1722, limits assumed, looked up): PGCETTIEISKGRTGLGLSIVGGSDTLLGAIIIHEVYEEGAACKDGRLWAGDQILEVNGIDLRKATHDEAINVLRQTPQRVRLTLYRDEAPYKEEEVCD
# T9: PARD3B_1, Q8TEW8
# T9 sequence (Q8TEW8 196-299, limits assumed, looked up): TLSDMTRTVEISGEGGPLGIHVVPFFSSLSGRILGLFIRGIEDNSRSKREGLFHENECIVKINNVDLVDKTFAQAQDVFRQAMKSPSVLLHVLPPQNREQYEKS
# T10: PTPN13_1, Q12923
# T10 sequence (Q12923 1088-1188, limits assumed, looked up): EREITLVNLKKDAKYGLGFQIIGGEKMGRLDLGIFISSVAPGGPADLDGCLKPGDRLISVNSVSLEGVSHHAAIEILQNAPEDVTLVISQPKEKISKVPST
# T11: RHPN1, Q8TCX5
# T11 sequence (Q8TCX5 508-602, limits assumed, looked up): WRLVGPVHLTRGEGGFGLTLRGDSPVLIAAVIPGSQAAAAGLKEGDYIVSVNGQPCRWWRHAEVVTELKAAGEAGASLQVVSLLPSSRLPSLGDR
# T12: SYNJ2BP, P57105
# T12 sequence (P57105 8-110, limits assumed, looked up): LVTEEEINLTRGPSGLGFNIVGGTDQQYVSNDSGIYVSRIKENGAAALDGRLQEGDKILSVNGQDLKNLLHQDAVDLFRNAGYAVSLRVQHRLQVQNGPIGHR
# B1: GRK6, P43250 (peptide)
# chain: DSEEELPTRL
# B2: SEMA4F, O95754 (peptide)
# chain: PLATCDETSI
# B3: GUCY1A2, P33402 (peptide)
# chain: GTMFLRETSL
# Molecular target: T1, DFNB31_2, Q9P202
# Experiment: holdup assay
# Set-up: key: below the threshold = too weak to quantify, mostly under pKd 3.1 to 4
# Details: plain residues with an end cap or a label only (N-terminal biotin on a linker: ado-ado)
row,pKd,Binder
1,below the threshold,B1
2,below the threshold,B2
3,4.53,B3

# Molecular target: DLG2_2, Q15700
# Sequence (Q15700 189-283): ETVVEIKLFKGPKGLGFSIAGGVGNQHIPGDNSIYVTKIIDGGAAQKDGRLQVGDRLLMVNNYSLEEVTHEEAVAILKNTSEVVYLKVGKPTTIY
# Experiment: holdup assay
# Set-up: key: below the threshold = too weak to quantify, mostly under pKd 3.1 to 4
# Details: plain residues with an end cap or a label only (N-terminal biotin on a linker: ado-ado)
row,pKd,Binder
1,below the threshold,B1
2,below the threshold,B2
3,4.23,B3

# Molecular target: T2, DLG3_2, Q92796
# Experiment: holdup assay
# Set-up: key: below the threshold = too weak to quantify, mostly under pKd 3.1 to 4
# Details: plain residues with an end cap or a label only (N-terminal biotin on a linker: ado-ado)
row,pKd,Binder
1,3.66,B1
2,4.3,B2
3,4.51,B3

# Molecular target: T3, DLG3_3, Q92796
# Experiment: holdup assay
# Set-up: key: below the threshold = too weak to quantify, mostly under pKd 3.1 to 4
# Details: plain residues with an end cap or a label only (N-terminal biotin on a linker: ado-ado)
row,pKd,Binder
1,below the threshold,B1
2,below the threshold,B2
3,4.64,B3

# Molecular target: DLG4_2, P78352
# Sequence (P78352 155-259): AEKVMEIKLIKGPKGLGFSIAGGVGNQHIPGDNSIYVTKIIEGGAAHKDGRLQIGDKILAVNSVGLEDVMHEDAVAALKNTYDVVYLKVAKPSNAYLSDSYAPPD
# Experiment: holdup assay
# Set-up: key: below the threshold = too weak to quantify, mostly under pKd 3.1 to 4
# Details: plain residues with an end cap or a label only (N-terminal biotin on a linker: ado-ado)
row,pKd,Binder
1,below the threshold,B1
2,3.67,B2
3,4.5,B3

# Molecular target: GORASP2, Q9H8Y8
# Experiment: holdup assay
# Set-up: key: below the threshold = too weak to quantify, mostly under pKd 3.1 to 4
# Details: plain residues with an end cap or a label only (N-terminal biotin on a linker: ado-ado)
row,pKd,Binder
1,below the threshold,B1
2,below the threshold,B2
3,below the threshold,B3

# Molecular target: T4, GRIP1_2, Q9Y3R0
# Experiment: holdup assay
# Set-up: key: below the threshold = too weak to quantify, mostly under pKd 3.1 to 4
# Details: plain residues with an end cap or a label only (N-terminal biotin on a linker: ado-ado)
row,pKd,Binder
1,below the threshold,B1
2,below the threshold,B2
3,below the threshold,B3

# Molecular target: T5, GRIP1_4, Q9Y3R0
# Experiment: holdup assay
# Set-up: key: below the threshold = too weak to quantify, mostly under pKd 3.1 to 4
# Details: plain residues with an end cap or a label only (N-terminal biotin on a linker: ado-ado)
row,pKd,Binder
1,below the threshold,B1
2,below the threshold,B2
3,below the threshold,B3

# Molecular target: HTRA1, Q92743
# Sequence (Q92743 360-477): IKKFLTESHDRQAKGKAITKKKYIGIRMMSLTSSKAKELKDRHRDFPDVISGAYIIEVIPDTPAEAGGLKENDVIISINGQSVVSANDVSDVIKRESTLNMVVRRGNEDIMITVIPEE
# Experiment: holdup assay
# Set-up: key: below the threshold = too weak to quantify, mostly under pKd 3.1 to 4
# Details: plain residues with an end cap or a label only (N-terminal biotin on a linker: ado-ado)
row,pKd,Binder
1,4.18,B1
2,3.89,B2
3,3.77,B3

# Molecular target: T6, HTRA3, P83110
# Experiment: holdup assay
# Set-up: key: below the threshold = too weak to quantify, mostly under pKd 3.1 to 4
# Details: plain residues with an end cap or a label only (N-terminal biotin on a linker: ado-ado)
row,pKd,Binder
1,below the threshold,B1
2,below the threshold,B2
3,below the threshold,B3

# Molecular target: IL16_1, Q14005
# Sequence (Q14005 210-306): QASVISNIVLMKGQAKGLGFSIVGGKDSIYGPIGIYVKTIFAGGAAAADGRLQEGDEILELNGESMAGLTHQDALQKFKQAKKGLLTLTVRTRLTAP
# Experiment: holdup assay
# Set-up: key: below the threshold = too weak to quantify, mostly under pKd 3.1 to 4
# Details: plain residues with an end cap or a label only (N-terminal biotin on a linker: ado-ado)
row,pKd,Binder
1,below the threshold,B1
2,below the threshold,B2
3,4.47,B3

# Molecular target: Inadl_10, Q8NI35
# Sequence (Q8NI35 1673-1763): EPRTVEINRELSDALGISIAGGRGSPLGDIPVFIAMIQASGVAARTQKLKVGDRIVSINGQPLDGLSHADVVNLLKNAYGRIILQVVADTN
# Experiment: holdup assay
# Set-up: key: below the threshold = too weak to quantify, mostly under pKd 3.1 to 4
# Details: plain residues with an end cap or a label only (N-terminal biotin on a linker: ado-ado)
row,pKd,Binder
1,below the threshold,B1
2,below the threshold,B2
3,below the threshold,B3

# Molecular target: Inadl_5, Q8NI35
# Sequence (Q8NI35 673-780): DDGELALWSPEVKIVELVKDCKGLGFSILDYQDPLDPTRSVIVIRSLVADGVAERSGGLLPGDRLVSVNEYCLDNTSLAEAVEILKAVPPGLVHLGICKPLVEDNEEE
# Experiment: holdup assay
# Set-up: key: below the threshold = too weak to quantify, mostly under pKd 3.1 to 4
# Details: plain residues with an end cap or a label only (N-terminal biotin on a linker: ado-ado)
row,pKd,Binder
1,below the threshold,B1
2,below the threshold,B2
3,below the threshold,B3

# Molecular target: Inadl_9, Q8NI35
# Sequence (Q8NI35 1530-1615): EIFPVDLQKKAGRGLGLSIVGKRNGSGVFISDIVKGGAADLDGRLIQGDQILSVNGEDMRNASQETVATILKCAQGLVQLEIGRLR
# Experiment: holdup assay
# Set-up: key: below the threshold = too weak to quantify, mostly under pKd 3.1 to 4
# Details: plain residues with an end cap or a label only (N-terminal biotin on a linker: ado-ado)
row,pKd,Binder
1,3.69,B1
2,below the threshold,B2
3,below the threshold,B3

# Molecular target: LAP2, Q96RT1
# Sequence (Q96RT1 other isoform, or with tags, fused parts or gaps): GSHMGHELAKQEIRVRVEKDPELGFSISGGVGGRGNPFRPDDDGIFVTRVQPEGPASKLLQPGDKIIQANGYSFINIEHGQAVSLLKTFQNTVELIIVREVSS
# Experiment: holdup assay
# Set-up: key: below the threshold = too weak to quantify, mostly under pKd 3.1 to 4
# Details: plain residues with an end cap or a label only (N-terminal biotin on a linker: ado-ado)
row,pKd,Binder
1,below the threshold,B1
2,below the threshold,B2
3,3.85,B3

# Molecular target: T7, LIN7B, Q9HAP6
# Experiment: holdup assay
# Set-up: key: below the threshold = too weak to quantify, mostly under pKd 3.1 to 4
# Details: plain residues with an end cap or a label only (N-terminal biotin on a linker: ado-ado)
row,pKd,Binder
1,below the threshold,B1
2,3.78,B2
3,4.74,B3

# Molecular target: T8, MPDZ_10, O75970
# Experiment: holdup assay
# Set-up: key: below the threshold = too weak to quantify, mostly under pKd 3.1 to 4
# Details: plain residues with an end cap or a label only (N-terminal biotin on a linker: ado-ado)
row,pKd,Binder
1,below the threshold,B1
2,below the threshold,B2
3,3.67,B3

# Molecular target: NHERF4_4, Q86UT5
# Sequence (Q86UT5 464-550): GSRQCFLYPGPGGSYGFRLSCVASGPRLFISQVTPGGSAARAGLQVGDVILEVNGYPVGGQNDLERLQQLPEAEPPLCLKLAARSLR
# Experiment: holdup assay
# Set-up: key: below the threshold = too weak to quantify, mostly under pKd 3.1 to 4
# Details: plain residues with an end cap or a label only (N-terminal biotin on a linker: ado-ado)
row,pKd,Binder
1,below the threshold,B1
2,below the threshold,B2
3,below the threshold,B3

# Molecular target: NOS1, P29475
# Sequence (P29475 9-101): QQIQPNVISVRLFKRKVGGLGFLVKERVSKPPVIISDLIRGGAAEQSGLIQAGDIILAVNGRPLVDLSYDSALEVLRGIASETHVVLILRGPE
# Experiment: holdup assay
# Set-up: key: below the threshold = too weak to quantify, mostly under pKd 3.1 to 4
# Details: plain residues with an end cap or a label only (N-terminal biotin on a linker: ado-ado)
row,pKd,Binder
1,3.61,B1
2,below the threshold,B2
3,3.84,B3

# Molecular target: T9, PARD3B_1, Q8TEW8
# Experiment: holdup assay
# Set-up: key: below the threshold = too weak to quantify, mostly under pKd 3.1 to 4
# Details: plain residues with an end cap or a label only (N-terminal biotin on a linker: ado-ado)
row,pKd,Binder
1,4.51,B1
2,below the threshold,B2
3,3.88,B3

# Molecular target: T10, PTPN13_1, Q12923
# Experiment: holdup assay
# Set-up: key: below the threshold = too weak to quantify, mostly under pKd 3.1 to 4
# Details: plain residues with an end cap or a label only (N-terminal biotin on a linker: ado-ado)
row,pKd,Binder
1,below the threshold,B1
2,below the threshold,B2
3,below the threshold,B3

# Molecular target: T11, RHPN1, Q8TCX5
# Experiment: holdup assay
# Set-up: key: below the threshold = too weak to quantify, mostly under pKd 3.1 to 4
# Details: plain residues with an end cap or a label only (N-terminal biotin on a linker: ado-ado)
row,pKd,Binder
1,3.55,B1
2,4.93,B2
3,4.8,B3

# Molecular target: T12, SYNJ2BP, P57105
# Experiment: holdup assay
# Set-up: key: below the threshold = too weak to quantify, mostly under pKd 3.1 to 4
# Details: plain residues with an end cap or a label only (N-terminal biotin on a linker: ado-ado)
row,pKd,Binder
1,3.5,B1
2,4.62,B2
3,5.41,B3

# Molecular target: TJP1_3, Q07157
# Sequence (Q07157 416-512): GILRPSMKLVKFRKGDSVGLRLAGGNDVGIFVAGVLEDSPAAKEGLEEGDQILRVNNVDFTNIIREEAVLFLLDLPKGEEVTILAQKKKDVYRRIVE
# Experiment: holdup assay
# Set-up: key: below the threshold = too weak to quantify, mostly under pKd 3.1 to 4
# Details: plain residues with an end cap or a label only (N-terminal biotin on a linker: ado-ado)
row,pKd,Binder
1,below the threshold,B1
2,below the threshold,B2
3,below the threshold,B3

# Molecular target: TJP2_1, Q9UDY2
# Sequence (Q9UDY2 24-128): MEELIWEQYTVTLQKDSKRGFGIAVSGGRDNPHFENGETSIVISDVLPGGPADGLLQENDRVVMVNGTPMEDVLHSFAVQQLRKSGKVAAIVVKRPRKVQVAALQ
# Experiment: holdup assay
# Set-up: key: below the threshold = too weak to quantify, mostly under pKd 3.1 to 4
# Details: plain residues with an end cap or a label only (N-terminal biotin on a linker: ado-ado)
row,pKd,Binder
1,below the threshold,B1
2,below the threshold,B2
3,below the threshold,B3
